B1: P. thracensis MukE (natural protein, Photorhabdus thracensis)
chain: MSSTHIEQFMPVKLAQALANSLFPELDSQLRAGRHIGIDDLDNHAFLMDFQEQLEEFYARYNVELIRAPEGFFYLRPRSTTLIPRSVLSELDMMVGKILCYLYLSPERLANQGIFTSQELYEELISLADEGKLMKFVNQRSSGSDLDKQKLQEKVRTTLNRLRRLGMVYFLPNNNNKFTITEAVFRFGADVRSGDDPREIQLRMIRDGEAMPVEGSLSLDDSENDETPDNSAEGAGDEQP
notes: MukE, KITE subunit of MukBEF, Photorhabdus thracensis; also called KITE protein MukE; source: E. coli BL21-Gold(DE3), co-expressed with MukB and MukF (pFB403) or with MukF (pFB486); co-purified with MukB
B2: P. thracensis MatP (natural protein, Photorhabdus thracensis)
chain: MKYQQLENLECGWKWAYLIRKHQEGEPITKYIENSAAHAAVDKLIKLESEPVRVLEWIEQHMNPDLFNRMKQTIRARRKRHFNAEHQHTRKKSIDLDFPVWHRLSALSQRRGNTLSETIVQLIEDAERKEKYANQMSSLKHDLEAILGKNE
notes: cloned without tag; the C-terminal tetramerization tail is not visible; also called MatP2; source: E. coli BL21-Gold(DE3), pFB469, purified (HisTrap, Q flowthrough, SP)

Experiments:
Assay in all cases: cryo-EM structure; MukB^EQ2E4F2–AcpP2 and MukB^EQ2–AcpP2 at 10 μM each, 80-bp matS DNA and MatP2; buffer H30 with 1 mM ATP, 2 mM MgCl2, 0.05% β-octyl glucoside; MatP/DNA/ATP-bound and apo particles from the same sample
[1] = molecular target: the molecule itself
P. thracensis MukE = molecular target: B1; conditions: both partners purified
[2] = molecular target: T1, P. thracensis MukB(E1407Q) (Photorhabdus thracensis, UniProt A0A0F7LRY2 1-1482, E1407Q); conditions: both partners purified
T1 construct: MukB, SMC subunit of MukBEF, Photorhabdus thracensis, with E1407Q (slows ATP hydrolysis); Two copies in each MukBEF monomer (kappa-MukB and nu-MukB); also called MukB^EQ; kappa-MukB; source: E. coli BL21-Gold(DE3), pFB485, produced at 22°C; purified alone or with MukEF after mixing of cell pellets (Ni-NTA, hSENP1 elution, Q, Superose 6); not shown: His6-SUMO, N-terminal, cleaved

Binder	binding result [1]	binding result (P. thracensis MukE)	binding result [2]
B1	binds	–	–
B2	binds	binds	binds
